In FireProtDB:
Where “and” joins values, the source holds several entries; their conditions need not be identical. Equal values may be shown once.

Conditions: Homo sapiens, whole UniProt chain shown
[1] = pH 4, 25 °C, GdnHCl, CD, Tris sodium acetate MES 50 mM 20 mM 20 mM
[2] = pH 7, 25 °C, GdnHCl, CD, Tris sodium acetate MES 50 mM 20 mM 20 mM
[3] = pH 5.3, Thermal, DSC, acetate 20 mM
[4] = pH 6.5, 25 °C, Urea, CD, Sodium phosphate 20 mM, NaCl 100 mM
[5] = pH 7, 25 °C, Urea, CD, Tris-HCL, Nacl, transition: 2, reversible: yes
[6] = pH 7, 25 °C, Urea, Fluorescence, Tris-HCl, NaCl, transition: 2
[7] = pH 7, 25 °C, Urea, fluorescence, Tris-HCL, Nacl, transition: 2, reversible: yes
[8] = pH 7, 37 °C, GdnHCl, CD, Sodium phosphate 100 mM, reversible: Yes
[9] = pH 7, Thermal, DSC, Potassium phosphate buffer, NaCl, reversible: yes
[10] = pH 7, Thermal, DSC, Tris-Maleate 0.02M, KCl 0.1 M, transition: 2, reversible: no
[11] = pH 7, Thermal, DSC, Tris-Maleate / KCL 20000 / 100000, transition: 2, reversible: no
[12] = pH 7.5, 0 °C, GdnHCl, CD, Na2HPO4 5 mM, transition: 2, reversible: No

B1: Interleukin-2 wild type, Q7Z7M3 (protein)
chain: MPTSSSTKKTQLQLEHLLLDLQMILNGINNYKNPKLTRMLTFKFYMPKKATELKHLQCLEEELKPLKEVLNLAQSKNFHLRPRDLISNINVIVLELKGSETTFMCEYADETATIVEFLNRWITFSQSIISTLT
[1]
  denaturant midpoint (higher = more stable): 4.4 M
  unfolding free energy: 9.9 kcal/mol
[2]
  denaturant midpoint (higher = more stable): 3.8 M
  unfolding free energy: 9.3 kcal/mol

B2: Cystatin-B wild type, P04080 (protein)
chain: MMCGAPSATQPATAETQHIADQVRSQLEEKENKKFPVFKAVSFKSQVVAGTNYFIKVHVGDEDFVHLRVFQSLPHENKPLTLSNYQTNKAKHDELTYF
[3]
  Tm: 50.2 °C
  heat capacity change of unfolding: 1.6 kcal/mol/K
  unfolding enthalpy (calorimetric): 70 kcal/mol

B3: Glutathione S-transferase A1 wild type, P08263 (protein)
chain: MAEKPKLHYFNARGRMESTRWLLAAAGVEFEEKFIKSAEDLDKLRNDGYLMFQQVPMVEIDGMKLVQTRAILNYIASKYNLYGKDIKERALIDMYIEGIADLGEMILLLPVCPPEEKDAKLALIKEKIKNRYFPAFEKVLKSHGQDYLVGNKLSRADIHLVELLYYVEELDSSLISSFPLLKALKTRISNLPTVKKFLQPGSPRKPPMDEKSLEEARKIFRF
[4]
  denaturant m value: 4.2 kcal/mol/M
  denaturant midpoint (higher = more stable): 4.6 M

B4: Gamma-crystallin D wild type, P07320 (protein)
chain: MGKITLYEDRGFQGRHYECSSDHPNLQPYLSRCNSARVDSGCWMLYEQPNYSGLQYFLRRGDYADHQQWMGLSDSVRSCRLIPHSGSHRIRLYEREDYRGQMIEFTEDCSCLQDRFRFNEIHSLNVLEGSWVLYELSNYRGRQYLLMPGDYRRYQDWGATNARVGSLRRVIDFS
pH 7, 25 °C, GdnHCl, Fluorescence, NaPO4 10 mM, reversible: yes
  denaturant midpoint (higher = more stable): 3.7 M
pH 7, 37 °C, GdnHCl, Fluorescence, NaPO4 10 mM, reversible: yes
  denaturant midpoint (higher = more stable): 2.7 M
pH 7, Thermal, ANS fluorescence, PBS, transition: 2, reversible: yes
  Tm: 76.6 °C
pH 7, Thermal, CD, PBS, transition: 2, reversible: yes
  Tm: 80 °C

B5: Frataxin, mitochondrial wild type, Q16595 (protein)
chain: MWTLGRRAVAGLLASPSPAQAQTLTRVPRPAELAPLCGRRGLRTDIDATCTPRRASSNQRGLNQIWNVKKQSVYLMNLRKSGTLGHPGSLDETTYERLAEETLDSLAEFFEDLADKPYTFEDYDVSFGSGVLTVKLGGDLGTYVINKQTPNKQIWLSSPSSGPKRYDWTGKNWVYSHDGVSLHELLAAELTKALKTKLDLSSLAYSGKDA
[5]
  denaturant midpoint (higher = more stable): 4.92 M
  unfolding free energy: 9 kcal/mol
pH 7, 25 °C, Urea, CD, Tris-HCl, NaCl, transition: 2
  denaturant midpoint (higher = more stable): 4.92 M
[6]
  denaturant midpoint (higher = more stable): 4.94 M
  unfolding free energy: 9.1 kcal/mol
[7]
  denaturant midpoint (higher = more stable): 4.94 M
  unfolding free energy: 9.1 kcal/mol
pH 7, Thermal, CD, Sodium phosphate buffer, NaCl
  Tm: 69.4 °C
pH 7, Thermal, CD, sodium phosphate, Nacl, transition: 2
  Tm: 69.4 °C

B6: Gamma-crystallin S wild type, P22914 (protein)
chain: MSKTGTKITFYEDKNFQGRRYDCDCDCADFHTYLSRCNSIKVEGGTWAVYERPNFAGYMYILPQGEYPEYQRWMGLNDRLSSCRAVHLPSGGQYKIQIFEKGDFSGQMYETTEDCPSIMEQFHMREIHSCKVLEGVWIFYELPNYRGRQYLLDKKEYRKPIDWGAASPAVQSFRRIVE
[8]
  denaturant m value: 4.6 kcal/mol/M and 2.9 kcal/mol/M
  denaturant midpoint (higher = more stable): 2.3 M and 1.7 M
  unfolding free energy: 10.5 kcal/mol and 4.9 kcal/mol
pH 7.4, Thermal, Fluorescence, Disodium phosphate, NaCl
  Tm: 67.5 °C and 65.8 °C

B7: Protein CutA wild type, O60888 (protein)
chain: MSGGRAPAVLLGGVASLLLSFVWMPALLPVASRLLLLPRVLLTMASGSPPTQPSPASDSGSGYVPGSVSAAFVTCPNEKVAKEIARAVVEKRLAACVNLIPQITSIYEWKGKIEEDSEVLMMIKTQSSLVPALTDFVRSVHPYEVAEVIALPVEQGNFPYLQWVRQVTESVSDSITVLP
[9]
  Tm: 96.4 °C
  unfolding enthalpy (calorimetric): 284 kcal/mol
  unfolding free energy: 0 kcal/mol
pH 8, 37 °C, GdnHCl, CD, Tris-HCl buffer, NaCl, transition: 2, reversible: yes
  denaturant midpoint (higher = more stable): 2.38 M

B8: Matrilysin wild type, P09237 (protein)
chain: MRLTVLCAVCLLPGSLALPLPQEAGGMSELQWEQAQDYLKRFYLYDSETKNANSLEAKLKEMQKFFGLPITGMLNSRVIEIMQKPRCGVPDVAEYSLFPNSPKWTSKVVTYRIVSYTRDLPHITVDRLVSKALNMWGKEIPLHFRKVVWGTADIMIGFARGAHGDSYPFDGPGNTLAHAFAPGTGLGGDAHFDEDERWTDGSSLGINFLYAATHELGHSLGMGHSSDPNAVMYPTYGNGDPQNFKLSQDDIKGIQKLYGKRSNSRKK
[10]
  Tm: 98.3 °C
  unfolding enthalpy (calorimetric): 13.7 kcal/mol
[11]
  Tm: 98.3 °C
  unfolding enthalpy (calorimetric): 13.8 kcal/mol

B9: Apolipoprotein C-I wild type, P02654 (protein)
chain: MRLFLSLPVLVVVLSIVLEGPAPAQGTPDVSSALDKLKEFGNTLEDKARELISRIKQSELSAKMREWFSETFQKVKEKLKIDS
[12]
  denaturant m value: 3.7 kcal/mol/M
  denaturant midpoint (higher = more stable): 0.85 M
  unfolding free energy: 2.8 kcal/mol
pH 7.5, 25 °C, GdnHCl, CD, Na2HPO4 5 mM, transition: 2, reversible: No
  unfolding free energy: 1.8 kcal/mol
pH 7.8, Thermal, CD, Sodium phosphate 5 mM, reversible: yes
  Tm: 51 °C
